# Laboratory results reported in the nanobody polyreactivity screen of Harvey et al. (2022).
# Experiment: yeast display, Sf9 membrane polyspecificity reagent, FACS + sequencing; frameworks hold sequencing errors
# Method in brief: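 A synthetic nanobody library was expressed on Saccharomyces cerevisiae BJ5465 by galactose induction for 36–48 hours. The library was stained for 1 hour at 4 °C with 10% biotinylated, detergent-solubilized Sf9 membrane reagent and enriched with streptavidin microbeads before FACS. Low and high (top ~1%) gates were set on anti-HA fluorescence for expression and streptavidin fluorescence for reagent binding, and each polyreactivity label reflects the gate of origin.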
row,Sequence,polyreactivity (PSR sort gate)
1,QVQLVESGGGLVQAGGSLRLSCAASGSIFGYYAMGWYRQAPGKERELVAAITWNADGTYYADSVKGRFTISRDNAKNTVYLQMNSLKPEDTAVYYCAADQYYQDWGGGYDYWGQGTQVTVSS,low polyreactivity
2,QVQLVESGGGLVQAGGSLRLSCAASGSIFGYYAMGWYRQAPGKERELVAAITWSGDSTYYADSVKGRFTISRDNAKNTVYLQMNSLKPEDTAVYYCAARQFVHTRYFSFGYWGQGTQVTVSS,low polyreactivity
3,QVQLVESGGGLVQAGGSLRLSCAASGSIFGYYAMGWYRQAPGKERELVAAITYSGGNTNYADSVKGRFTISRDNAKNTVYLQMNSLKPEDTAVYYCAARKNYQAVYARRTRYYYWGQGTQVTVSS,high polyreactivity
4,QVQLVESGGGLVQAGGSLRLSCAASGSIFGYYAMGWYRQAPGKERELVARISYSGGTTYYADSVKGRFTISRDNAKNTVYLQMNSLKPEDTAVYYCNARIPYSWRYGYWGQGTQVTVSS,high polyreactivity
5,QVQLVESGGGLVQAGGSLRLSCAASGSIFGYYAMGWYRQAPGKERELVAVITRSGGSTYYADSVKGRFTISRDNAKNTVYLQMNSLKPEDTAVYYSNAKSDYGYKMYYWGQGTQVTVSS,high polyreactivity
6,QVQLVESGGGLVQAGGSLRLSCAASGSIFGYYAMGWYRQAPGKERELVAVITSSGGGTYYADSVKGRFTISRDNAKNTVYLQMNSLKPEDTAVYYCAKLGTRRYDSWGQGTQVTVSS,high polyreactivity
7,QVQLVESGGGLVQAGGSLRLSCAASGSIFGYYGMGWYRQAPGKERELVATITSGGSTNYADSVKGRFTISRDNAKNTVYLQMNSLKPEDTAVYYCARQYGYQPERYGYWGQGTQVTVSS,low polyreactivity
8,QVQLVESGGGLVQAGGSLRLSCAASGSIFGYYTMGWYRQAPGKERELVATITSGGSTYYADSVKGRFTISRDNAKNTDYLQMNSLKPEDTAVYYCNARTAQNVVLYDFGYWGQGTQVTVSS,high polyreactivity
9,QVQLVESGGGLVQAGGSLRLSCAASGSIFHAYAMGWYRQAPGKERELVAAINRGGRTNYADSVKGRFTISRDNAKNTVYLQMNSLKPEDTAVYYCAASYRWVTDKTHYYWGQGTQVTVSS,low polyreactivity
10,QVQLVESGGGLVQAGGSLRLSCAASGSIFHDNAMGWYRQAPGKERELVAAINRGGSTHYADSVKGRFTISRDNAKNTVYLQMNSLKPEDTAVYYCAADGFRPEVGYWGQGTQVTVSS,low polyreactivity
11,QVQLVESGGGLVQAGGSLRLSCAASGSIFHGNAMGWYRQAHGKERELVAVISDGGSTDYADSVKGRFTISRDNANNSVYLQMTSLKPEDTAVYYCNAAYDTQYFYRKHIYYLSGYDYWGQGTQVTVSS,low polyreactivity
12,QVQLVESGGGLVQAGGSLRLSCAASGSIFHGYAMGWYRQAPGKERELVAAISSTGGSTYYADSVKGRFTISRDNAKNTVYLQMNSLKPEDTAVYYCAAYYYVGYRARRYDYWGQGTQVTVSS,high polyreactivity
13,QVQLVESGGGLVQAGGSLRLSCAASGSIFHLYAMGWYRQAPGKERELVAAITWTGGSTYYADSVKGRFTISRDNAKNTVYLQMNSLKPEDTAVYYCAARQQVRLRPGPLYYYWGQGTQVTVSS,high polyreactivity
14,QVQLVESGGGLVQAGGSLRLSCAASGSIFHPYGMGWYRQAPGKERELVAAITSSGGDTYYADSVKGRFTFSRDIAKNTVYLQMISLKPEDTAVYYCAATGLPGYYAYDYWGQGTQVTVSS,low polyreactivity
15,QVQLVESGGGLVQAGGSLRLSCAASGSIFHPYTMGWYRQAPGKERELVAAISWSGGNTNYADSVKGRFTISRDNAKNTVYLQMNSLKPEDTAVYYCNKATNLSGGYDSWGQGTQVTVSS,low polyreactivity
16,QVQLVESGGGLVQAGGSLRLSCAASGSIFHQYVMGWYRQAPGKERELVAAISIRGTRTYYADSVKGRFTISRDNAKNTVYLQMNSLKPEDTAVYYCAVSGGRLQGDYWGQGTQVTVSS,high polyreactivity
17,QVQLVESGGGLVQAGGSLRLSCAASGSIFHSYAMGWYRQAPGKETELVASITASGDSTYYADSVKGRFTISRDNAKNTVYLQMNSLKPEDTAVYYCNTQAVYGGGEGGYDYWGQCTQVTVSS,low polyreactivity
18,QVQLVESGGGLVQAGGSLRLSCAASGSIFHVYAMGWYRQAPGKERELVAAIDRSGGSTYYADSVKGRFTISRDNAKNTVYLQMNSLKPEDTAVYYCAKDVLGGQITDGVGNDYWGQGTQVTVSS,low polyreactivity
19,QVQLVESGGGLVQAGGSLRLSCAASGSIFHWYTMGWYRQAPGKERELVATISAGGSTYYADSVKGRFKISRDNAKNTVYLQMNSLKPEDTAVYYCNRRVHGVYRWRRSDSWGQGTQVTVAS,high polyreactivity
20,QVQLVESGGGLVQAGGSLRLSCAASGSIFIGNTMGWYRQAPGKERELVATIRRSGSRTYYADSVKGRFTISRDNAKNTVYLQMNSLKPEDTAVYYCAADRLRNSGYKTIYDYWGQGTQVTVSS,low polyreactivity
21,QVQLVESGGGLVQAGGSLRLSCAASGSIFIGYAMGWYRQAPGKERELVAAISWSGDSTYYADSVKGRFTISRDNAKNTVYLQMNSLKPEDTAVYYCARDKWGLRYAPTVDYWGQGTQVTVSS,high polyreactivity
22,QVQLVESGGGLVQAGGSLRLSCAASGSIFIGYGMGWYRQAPGKERELVAAITSGSITNYADSVKGRFTISRDNAKNTVYLQMNSLKPEDTAVYNCNADVNFIDDDYWGQGTQVTVSA,low polyreactivity

row,Sequence,polyreactivity (PSR sort gate)
1,QVQLVESGGGLVQAGGSLRLSCAASGSIFIINAMVWYRQAPGKERELVAAINNGVNTYYADSVKGRFTISRDNAKNTVYLQMNSLKPEDTAGYYCAADYGDPRVNEYDYWGQGTQVTVSS,low polyreactivity
2,QVQLVESGGGLVQAGGSLRLSCAASGSIFINNMGWYRQAPGKERELVAAISNSGGRTYYADSVKGRFTISRDNAKNTVYLQMNSLKPEDTAVYYCAKKSNRLPYGYWGQGTQVTVSS,high polyreactivity
3,QVQLVESGGGLVQAGGSLRLSCAASGSIFIPNAMGWYRQAPGKERELVAAIRSGGSTYYADSVKGRFTISRDNAKNTVYLQLLSLKPEDTAVYYCAADTYTYYYYLARYYYWGQGTQVTVSS,low polyreactivity
4,QVQLVESGGGLVQAGGSLRLSCAASGSIFIQYDMGWYRQAPGKERELVATIRSCDSTTYADSVKGRFTISRDNAKNTVFLQVNSLKPEDTAVYYCAKDYRFDYDYDYWGQGTQVTVSS,low polyreactivity
5,QVQLVESGGGLVQAGGSLRLSCAASGSIFIRNAMGWYRQAPGKERELVAAITSGGNTYYADSVKGRFTISRDNAKNTVYLQMNSLKPEDTAVYYCNAGRYYRHDYWGQGTQVTVSS,low polyreactivity
6,QVQLVESGGGLVQAGGSLRLSCAASGSIFIRYAMGWYRQAPGKERELVAAITRSGGSTYYADSVKGRFTISRDNAKNTVYLQMNSLKPEDTAVYYCNVLLRRNGYFARGDYWGQGTQVTVSS,high polyreactivity
7,QVQLVESGGGLVQAGGSLRLSCAASGSIFISYAMGWYRQAPGKERELVAAISSGGSTNYADSVKGRFTISRDNAKNTVYLQMNSLKPEDTAVYYCAADGWLWSFTGDGWWFVYWGQGTQVTVSS,low polyreactivity
8,QVQLVESGGGLVQAGGSLRLSCAASGSIFISYAMGWYRQAPGKERELVAAITSGGRTNYADSVKGRFTISRDNAKNTVYLQMNSLKPEDTAVYYCAKRQSHSRKYDYWGQGTQVTVSS,low polyreactivity
9,QVQLVESGGGLVQAGGSLRLSCAASGSIFIVNVMGWYRQAPGKERELVAGITTNGGITYYADSVKGRFTISRDNAKNTVYLQMNSLKPEDTAVYYCATRSASPSSIEMDYWGQGTQVTVSS,low polyreactivity
10,QVQLVESGGGLVQAGGSLRLSCAASGSIFIWYAMGWYRQAPGKERELVATITSSGSTNYADSVKGRFTISRDNAKNTVYLQMNSLKPEDTAVYYCAKRGPLRHYSWGQGTQVTVSS,low polyreactivity
11,QVQLVESGGGLVQAGGSLRLSCAASGSIFIYNAMGWYRQAPGKERELVAAISSSGGSTYYADSVKGRFTISRDNAKNTVYLQMNSLKPVDTAVYYCAARTYYVRGLGGRPGMDYWGQGTQVTVSS,low polyreactivity
12,QVQLVESGGGLVQAGGSLRLSCAASGSIFIYYAMGWYRHAPGKERELDAAISNGGSTNYADSVKGRFTISRDNGKNTVYLQLNRLKPEDTAVYYCNARLERTPSLYLYGSWGQGTQVTVSS,low polyreactivity
13,QVQLVESGGGLVQAGGSLRLSCAASGSIFIYYAMGWYRQAPGKEREFVAAISYSDGDTYYADSVKGRFTISRDNAKNTVYLQMNSLKPEDTAVYYCAAEVPQYYDVGWEDHWGQGTQVTVSS,high polyreactivity
14,QVQLVESGGGLVQAGGSLRLSCAASGSIFIYYAMGWYRQAPGKERELVAAINTGGTTYYADSVKGRFTISRDNAKNTVYLQMNSLKPEDTAVYYCAKYIAYYGYVPSPWDHPGDDYWGQGTQVTVSS,low polyreactivity
15,QVQLVESGGGLVQAGGSLRLSCAASGSIFIYYAMGWYRQAPGKERELVAAISFSGARTYYADSVKGRFTISRDNAKNNVSLQMNSLKPEDTAVYYCNVEIGTGDYDYWGQGTQVTVSS,low polyreactivity
16,QVQLVESGGGLVQAGGSLRLSCAASGSIFKANTMGWSRQAPGKERELVAAISGSGGRTRYADSVRGRFTISRDNAKNTVYLQMNSLKPDVTAVYYCAATDRGGYYYWGQGTQVTVSS,high polyreactivity
17,QVQLVESGGGLVQAGGSLRLSCAASGSIFKAYDMGWYRPAPGKERELVAGISSSDSTYYADSVKGRFSISRDNAKNTVYLQLNSLKPEDTAVYYCAADPVFAAAYIHLYEYWGQGTQVTVSS,low polyreactivity
18,QVQLVESGGGLVQAGGSLRLSCAASGSIFKENAMGWYRQAPGKERELVAAITSSGGNTYYADSVKGRFTISRDHAKNTVYIQMNSLKPEDTAVYYCNAGVPVRSTTTDGYWGQGTQVNVSS,high polyreactivity
19,QVQLVESGGGLVQAGGSLRLSCAASGSIFKEYAMGWYRQAPGKERELVATISWSGGSTYYADSVKGRFTISRDNAKNTVYLQMNSLKPEDTAVYYCNKSTPWWYVVRYDYWGQGTQVTVSS,high polyreactivity
20,QVQLVESGGGLVQAGGSLRLSCAASGSIFKHNDMGWYRQAPGKERELVAAISRSGGATYYAHSVKGRFTISRDNAKNTVYLQMNSLKPEDTAVYYCNAGRRTARYGYWGQGTQVTVSS,high polyreactivity
21,QVQLVESGGGLVQAGGSLRLSCAASGSIFKKYAMGWYRQAPGKERELVAAISKSGGSTYYADSVKGRFTISRDNAKNTVYLQMNSLKPEDTAVYYCAAAAGGSAYWDYDYWGQGTQVTVSS,low polyreactivity
